Measured values as given in patent publication US20190322765A1.

How the values were obtained:
[1] = biological target: murine IL-2R βγ heterodimer (β knob γ hole Fc fusion) (murine) (UniProt P16297); experiment: SPR, against the human IL-2R βγ heterodimer as reference
[2] = biological target: murine IL-2R α-subunit, recombinant monomeric (murine) (UniProt P01590); experiment: SPR, against the human IL-2R α-subunit as reference
[3] = biological target: IL-2R βγ heterodimer on human cells (NK92 cells, NK and T cells of PBMC) (human) (UniProt P14784); experiment: cell-based or functional assay
Sequence of IL-2R βγ heterodimer on human cells (NK92 cells, NK and T cells of PBMC) (human) (P14784 27-551, chain 1 of 2): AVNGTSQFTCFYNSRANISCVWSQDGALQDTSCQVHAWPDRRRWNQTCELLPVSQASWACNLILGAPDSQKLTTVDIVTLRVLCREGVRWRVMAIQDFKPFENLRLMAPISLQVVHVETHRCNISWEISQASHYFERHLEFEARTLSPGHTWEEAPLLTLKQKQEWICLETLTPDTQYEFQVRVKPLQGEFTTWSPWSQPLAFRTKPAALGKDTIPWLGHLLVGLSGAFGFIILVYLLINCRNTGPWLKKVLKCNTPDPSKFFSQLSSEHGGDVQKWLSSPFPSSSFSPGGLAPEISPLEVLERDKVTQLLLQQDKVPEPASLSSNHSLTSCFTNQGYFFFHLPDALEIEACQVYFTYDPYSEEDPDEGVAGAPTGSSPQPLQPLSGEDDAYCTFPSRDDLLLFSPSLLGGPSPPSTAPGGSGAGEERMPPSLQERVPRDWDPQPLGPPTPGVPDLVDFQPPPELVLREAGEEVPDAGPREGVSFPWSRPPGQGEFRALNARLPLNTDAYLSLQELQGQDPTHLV
Sequence of IL-2R βγ heterodimer on human cells (NK92 cells, NK and T cells of PBMC) (human) (P31785 23-369, chain 2 of 2, further chain): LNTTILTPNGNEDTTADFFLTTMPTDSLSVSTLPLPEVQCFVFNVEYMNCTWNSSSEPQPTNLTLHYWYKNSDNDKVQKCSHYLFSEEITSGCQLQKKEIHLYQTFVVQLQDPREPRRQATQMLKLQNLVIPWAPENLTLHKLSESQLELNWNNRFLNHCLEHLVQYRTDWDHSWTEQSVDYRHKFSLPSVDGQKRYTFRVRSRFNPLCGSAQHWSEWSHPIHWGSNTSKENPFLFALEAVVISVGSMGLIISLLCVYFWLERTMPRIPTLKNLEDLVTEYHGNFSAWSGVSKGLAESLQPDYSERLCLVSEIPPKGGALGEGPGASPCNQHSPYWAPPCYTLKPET

Sequence of murine IL-2R α-subunit, recombinant monomeric (murine) (P01590 22-236 limits assumed): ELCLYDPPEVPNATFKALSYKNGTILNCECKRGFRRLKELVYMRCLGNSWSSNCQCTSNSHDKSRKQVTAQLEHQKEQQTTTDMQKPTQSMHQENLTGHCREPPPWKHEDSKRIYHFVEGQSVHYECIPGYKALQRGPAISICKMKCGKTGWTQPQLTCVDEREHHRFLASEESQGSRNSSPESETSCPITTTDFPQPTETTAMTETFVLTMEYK
Sequence of murine IL-2R βγ heterodimer (β knob γ hole Fc fusion) (murine) (P16297 27-240, chain 1 of 2): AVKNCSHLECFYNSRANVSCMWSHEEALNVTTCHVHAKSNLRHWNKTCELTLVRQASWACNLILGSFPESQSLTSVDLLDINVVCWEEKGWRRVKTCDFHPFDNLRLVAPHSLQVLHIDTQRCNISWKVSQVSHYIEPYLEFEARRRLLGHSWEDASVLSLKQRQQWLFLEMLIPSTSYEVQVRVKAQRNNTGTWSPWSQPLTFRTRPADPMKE
Sequence of murine IL-2R βγ heterodimer (β knob γ hole Fc fusion) (murine) (P34902 23-263, chain 2 of 2, further chain): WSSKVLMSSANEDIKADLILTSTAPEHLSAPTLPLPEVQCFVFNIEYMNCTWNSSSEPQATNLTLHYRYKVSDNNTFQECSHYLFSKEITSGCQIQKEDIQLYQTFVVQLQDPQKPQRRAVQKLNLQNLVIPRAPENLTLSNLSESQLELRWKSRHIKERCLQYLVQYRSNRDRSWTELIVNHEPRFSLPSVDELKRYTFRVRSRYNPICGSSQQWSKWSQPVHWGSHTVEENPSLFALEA

| fold lower affinity than for the human receptor [1] [fold] | fold lower affinity than for the human receptor [2] [fold] | EC50 of IFN-γ release by NK92 cells [3] [nM] | EC50 of STAT5 phosphorylation, CD8+ T cells [3] [nM] | EC50 of STAT5 phosphorylation, NK cells [3] [nM] | Substance |
| --- | --- | --- | --- | --- | --- |
| 10 | 10 |  |  |  | human IL-2 |
|  |  | 4.1 | 1.07 | 0.222 | Proleukin (Novartis/Chiron), commercially available wild-type IL-2 (from UniProt P60568 22-153) (ligand) |
